Test results: publication PMC9728937

Biological target: FgSnt1^1-744-GST (Fusarium graminearum)
Experiment: ITC
Conditions: enzyme

Substance: Cpk1-HIS
- Kd: 0.248 µM
